Changes are numbered by the printed parent chain.
Legend:
Experiment in all cases: SPR (Biacore), binding relative to GpH7-A5/GpH7-B3/GpL16-k0 x100;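 further: surface plasmon resonance at 25 °C, antibody captured on a sensor chip and soluble FcγR flowed over it in HBS-EP+ running buffer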
[1] = biological target: T1, FcγRIa (human, UniProt P12314 16-292)
T1 construct: extracellular domain; also called 1a
Experimental: (§1) The antibody of interest was analyzed for its interaction with FcγR using a BiaCore™ T100, BiaCore™ A100, or BiaCore™ 4000 surface plasmon resonance system (GE Healthcare Japan Corp.). The running buffer used was HBS-EP+ (GE Healthcare Japan Corp.). The assay temperature was set to 25° C. The sensor chips used were: a chip prepared by immobilizing antigenic peptides onto Series S Sensor Chip CM5 (GE Healthcare Japan Corp.) by the amine coupling method; a chip prepared by immobilizing antigenic peptides biotinylated in advance onto Series S Sensor Chip SA (certified) (GE Healthcare Japan Corp.) through their interaction; a chip prepared by immobilizing protein L (ACTIGEN, BioVision, Inc.) onto Series S Sensor Chip CM5 (GE Healthcare Japan Corp.); and a chip prepared by immobilizing protein A/G (Thermo Fisher Scientific K.K.) onto Series S Sensor Chip CM5 (GE Healthcare Japan Corp.). The antibody of interest was captured onto any of these chips and allowed to interact with FcγR diluted with a running buffer. The antibody captured on the chip was washed off through the reaction of 10 mM glycine-HCl (pH 1.5) to regenerate the chip, which was repetitively used.

[2] = biological target: T2, FcγRIIa(R) (human, UniProt P12318 34-217)
T2 construct: extracellular domain; also called FcγRIIa R type; 2aR
T2 sequence: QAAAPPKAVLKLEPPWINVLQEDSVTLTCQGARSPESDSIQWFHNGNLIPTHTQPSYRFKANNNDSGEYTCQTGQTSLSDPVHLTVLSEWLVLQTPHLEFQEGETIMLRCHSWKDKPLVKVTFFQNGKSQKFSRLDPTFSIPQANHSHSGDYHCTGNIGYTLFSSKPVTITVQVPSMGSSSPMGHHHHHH
Experimental: as §1

[3] = biological target: T3, FcγRIIa(H) (human, UniProt P12318 34-217)
T3 construct: extracellular domain; also called FcγRIIa H type; 2aH
T3 sequence: T2 sequence with R134H
Experimental: as §1

[4] = biological target: T4, FcγRIIb (human, UniProt P31994 43-217)
T4 construct: extracellular domain; also called 2b
T4 sequence: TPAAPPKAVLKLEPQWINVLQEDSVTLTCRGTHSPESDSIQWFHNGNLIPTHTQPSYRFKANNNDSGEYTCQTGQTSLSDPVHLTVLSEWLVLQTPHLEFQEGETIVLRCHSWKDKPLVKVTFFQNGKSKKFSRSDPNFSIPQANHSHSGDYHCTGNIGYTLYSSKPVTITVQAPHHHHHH
Experimental: as §1

T1 sequence (P12314 other isoform, or with tags, fused parts or gaps): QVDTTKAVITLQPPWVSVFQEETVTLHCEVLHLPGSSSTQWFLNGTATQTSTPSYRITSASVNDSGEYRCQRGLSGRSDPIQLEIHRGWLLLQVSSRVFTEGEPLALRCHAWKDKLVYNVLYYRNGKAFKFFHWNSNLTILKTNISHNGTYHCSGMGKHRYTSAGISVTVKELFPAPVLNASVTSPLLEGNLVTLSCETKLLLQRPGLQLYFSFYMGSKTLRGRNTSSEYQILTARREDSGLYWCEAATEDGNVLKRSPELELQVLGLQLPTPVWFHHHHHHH

B1: GpH7-A5/GpH7-B3 variant L234_05P/GpL16-k0 (antibody, human IgG1, kappa)
heavy 1: not shown
heavy 2: not shown
light: DIVMTQSPLSLPVTPGEPASISCQASESLVHSNRNTYLHWYLQKPGQSPQLLIYKVSNRFSGVPDRFSGSGSGTDFTLKISRVEAEDVGVYYCSQNTHVPPTFGQGTKVEIERTVAAPSVFIFPPSDEQLKSGTASVVCLLNNFYPREAKVQWKVDNALQSGNSQESVTEQDSKDSTYSLSSTLTLSKADYEKHKVYACEVTHQGLSSPVTKSFNRGEC
notes: heterodimerized IgG1, one H chain mutated; also called He Ab
He/Con 1a [1]: 103%
He/Con 2aR [2]: 104%
He/Con 2aH [3]: 104%
He/Con 2b [4]: 83.2%

B2: GpH7-A5/GpH7-B3 variant L234_10E/GpL16-k0 (antibody, human IgG1, kappa)
heavy 1: not shown
heavy 2: not shown
light: B1 light
notes: as for B1
He/Con 1a [1]: 104%
He/Con 2aR [2]: 130%
He/Con 2aH [3]: 98.2%
He/Con 2b [4]: 134%

B3: GpH7-A5/GpH7-B3 variant P238_08L/GpL16-k0 (antibody, human IgG1, kappa)
heavy 1: not shown
heavy 2: not shown
light: B1 light
notes: as for B1
He/Con 1a [1]: 104%
He/Con 2aR [2]: 132%
He/Con 2aH [3]: 81.8%
He/Con 2b [4]: 207%

B4: GpH7-A5/GpH7-B3 variant L235_04F/GpL16-k0 (antibody, human IgG1, kappa)
heavy 1: not shown
heavy 2: not shown
light: B1 light
notes: as for B1
He/Con 1a [1]: 100%
He/Con 2aR [2]: 132%
He/Con 2aH [3]: 123%
He/Con 2b [4]: 135%

B5: GpH7-A5/GpH7-B3 variant L235_18N/GpL16-k0 (antibody, human IgG1, kappa)
heavy 1: not shown
heavy 2: not shown
light: B1 light
notes: as for B1
He/Con 1a [1]: 95.2%
He/Con 2aR [2]: 77.3%
He/Con 2aH [3]: 73.5%
He/Con 2b [4]: 62.7%

B6: GpH7-A5/GpH7-B3 variant L234_16H/GpL16-k0 (antibody, human IgG1, kappa)
heavy 1: not shown
heavy 2: not shown
light: B1 light
notes: as for B1
He/Con 1a [1]: 97%
He/Con 2aR [2]: 83.5%
He/Con 2aH [3]: 97.1%
He/Con 2b [4]: 67.8%

B7: GpH7-A5/GpH7-B3 variant L234_06M/GpL16-k0 (antibody, human IgG1, kappa)
heavy 1: not shown
heavy 2: not shown
light: B1 light
notes: as for B1
He/Con 1a [1]: 107%
He/Con 2aR [2]: 109%
He/Con 2aH [3]: 96.4%
He/Con 2b [4]: 89.6%

B8: GpH7-A5/GpH7-B3 variant L235_14T/GpL16-k0 (antibody, human IgG1, kappa)
heavy 1: not shown
heavy 2: not shown
light: B1 light
notes: as for B1
He/Con 1a [1]: 91.6%
He/Con 2aR [2]: 70.6%
He/Con 2aH [3]: 79.5%
He/Con 2b [4]: 53.4%

B9: GpH7-A5/GpH7-B3 variant L235_06M/GpL16-k0 (antibody, human IgG1, kappa)
heavy 1: not shown
heavy 2: not shown
light: B1 light
notes: as for B1
He/Con 1a [1]: 101%
He/Con 2aR [2]: 106%
He/Con 2aH [3]: 96.3%
He/Con 2b [4]: 92.4%

B10: GpH7-A5/GpH7-B3 variant L234_15Y/GpL16-k0 (antibody, human IgG1, kappa)
heavy 1: not shown
heavy 2: not shown
light: B1 light
notes: as for B1
He/Con 1a [1]: 103%
He/Con 2aR [2]: 113%
He/Con 2aH [3]: 134%
He/Con 2b [4]: 110%

B11: GpH7-A5/GpH7-B3 variant L235_02A/GpL16-k0 (antibody, human IgG1, kappa)
heavy 1: not shown
heavy 2: not shown
light: B1 light
notes: as for B1
He/Con 1a [1]: 95.2%
He/Con 2aR [2]: 86.6%
He/Con 2aH [3]: 77.6%
He/Con 2b [4]: 72%

B12: GpH7-A5/GpH7-B3 variant P238_09D/GpL16-k0 (antibody, human IgG1, kappa)
heavy 1: not shown
heavy 2: not shown
light: B1 light
notes: as for B1
He/Con 1a [1]: 99%
He/Con 2aR [2]: 140%
He/Con 2aH [3]: 84.7%
He/Con 2b [4]: 224%

B13: GpH7-A5/GpH7-B3 variant L235_20W/GpL16-k0 (antibody, human IgG1, kappa)
heavy 1: not shown
heavy 2: not shown
light: B1 light
notes: as for B1
He/Con 1a [1]: 95.9%
He/Con 2aR [2]: 152%
He/Con 2aH [3]: 131%
He/Con 2b [4]: 168%

B14: GpH7-A5/GpH7-B3 variant L235_15Y/GpL16-k0 (antibody, human IgG1, kappa)
heavy 1: not shown
heavy 2: not shown
light: B1 light
notes: as for B1
He/Con 1a [1]: 100%
He/Con 2aR [2]: 150%
He/Con 2aH [3]: 135%
He/Con 2b [4]: 170%

B15: GpH7-A5/GpH7-B3 variant L235_05P/GpL16-k0 (antibody, human IgG1, kappa)
heavy 1: not shown
heavy 2: not shown
light: B1 light
notes: as for B1
He/Con 1a [1]: 97.8%
He/Con 2aR [2]: 74.6%
He/Con 2aH [3]: 64.2%
He/Con 2b [4]: 62.4%

B16: GpH7-A5/GpH7-B3 variant L234_13S/GpL16-k0 (antibody, human IgG1, kappa)
heavy 1: not shown
heavy 2: not shown
light: B1 light
notes: as for B1
He/Con 1a [1]: 100%
He/Con 2aR [2]: 82.6%
He/Con 2aH [3]: 89.4%
He/Con 2b [4]: 67.7%

B17: GpH7-A5/GpH7-B3 variant L234_19Q/GpL16-k0 (antibody, human IgG1, kappa)
heavy 1: not shown
heavy 2: not shown
light: B1 light
notes: as for B1
He/Con 1a [1]: 98.8%
He/Con 2aR [2]: 87.2%
He/Con 2aH [3]: 88.1%
He/Con 2b [4]: 68.9%

B18: GpH7-A5/GpH7-B3 variant L234_14T/GpL16-k0 (antibody, human IgG1, kappa)
heavy 1: not shown
heavy 2: not shown
light: B1 light
notes: as for B1
He/Con 1a [1]: 102%
He/Con 2aR [2]: 90%
He/Con 2aH [3]: 86.8%
He/Con 2b [4]: 71.4%

B19: GpH7-A5/GpH7-B3 variant L235_07I/GpL16-k0 (antibody, human IgG1, kappa)
heavy 1: not shown
heavy 2: not shown
light: B1 light
notes: as for B1
He/Con 1a [1]: 103%
He/Con 2aR [2]: 102%
He/Con 2aH [3]: 99.5%
He/Con 2b [4]: 100%

B20: GpH7-A5/GpH7-B3 variant L235_03V/GpL16-k0 (antibody, human IgG1, kappa)
heavy 1: not shown
heavy 2: not shown
light: B1 light
notes: as for B1
He/Con 1a [1]: 97.8%
He/Con 2aR [2]: 83.4%
He/Con 2aH [3]: 94.9%
He/Con 2b [4]: 75.8%

B21: GpH7-A5/GpH7-B3 variant L235_10E/GpL16-k0 (antibody, human IgG1, kappa)
heavy 1: not shown
heavy 2: not shown
light: B1 light
notes: as for B1
He/Con 1a [1]: 96.9%
He/Con 2aR [2]: 98.7%
He/Con 2aH [3]: 80%
He/Con 2b [4]: 90.8%

B22: GpH7-A5/GpH7-B3 variant L235_16H/GpL16-k0 (antibody, human IgG1, kappa)
heavy 1: not shown
heavy 2: not shown
light: B1 light
notes: as for B1
He/Con 1a [1]: 92.7%
He/Con 2aR [2]: 110%
He/Con 2aH [3]: 99.8%
He/Con 2b [4]: 87.8%

B23: GpH7-A5/GpH7-B3 variant L234_18N/GpL16-k0 (antibody, human IgG1, kappa)
heavy 1: not shown
heavy 2: not shown
light: B1 light
notes: as for B1
He/Con 1a [1]: 97.3%
He/Con 2aR [2]: 98%
He/Con 2aH [3]: 100%
He/Con 2b [4]: 92%

B24: GpH7-A5/GpH7-B3 variant L234_20W/GpL16-k0 (antibody, human IgG1, kappa)
heavy 1: not shown
heavy 2: not shown
light: B1 light
notes: as for B1
He/Con 1a [1]: 102%
He/Con 2aR [2]: 125%
He/Con 2aH [3]: 126%
He/Con 2b [4]: 131%

B25: GpH7-A5/GpH7-B3 variant L235_13S/GpL16-k0 (antibody, human IgG1, kappa)
heavy 1: not shown
heavy 2: not shown
light: B1 light
notes: as for B1
He/Con 1a [1]: 93.5%
He/Con 2aR [2]: 75.9%
He/Con 2aH [3]: 73.5%
He/Con 2b [4]: 55%

B26: GpH7-A5/GpH7-B3 variant L234_09D/GpL16-k0 (antibody, human IgG1, kappa)
heavy 1: not shown
heavy 2: not shown
light: B1 light
notes: as for B1
He/Con 1a [1]: 101%
He/Con 2aR [2]: 142%
He/Con 2aH [3]: 100%
He/Con 2b [4]: 172%

B27: GpH7-A5/GpH7-B3 variant L234_07I/GpL16-k0 (antibody, human IgG1, kappa)
heavy 1: not shown
heavy 2: not shown
light: B1 light
notes: as for B1
He/Con 1a [1]: 106%
He/Con 2aR [2]: 110%
He/Con 2aH [3]: 101%
He/Con 2b [4]: 92.3%

B28: GpH7-A5/GpH7-B3 variant L235_09D/GpL16-k0 (antibody, human IgG1, kappa)
heavy 1: not shown
heavy 2: not shown
light: B1 light
notes: as for B1
He/Con 1a [1]: 87.6%
He/Con 2aR [2]: 117%
He/Con 2aH [3]: 84.3%
He/Con 2b [4]: 121%
